Consider 4 molecules from US20220144966A1 (SORRENTO THERAPEUTICS, published 2022).

For experiment [1], the target named is T1, recombinant cynomolgus CD38/His-tag (Sino Biological, catalog #90050-C08H) (cynomolgus monkey, UniProt Q5VAN0 44-300).
T1 construct: Bought protein; also called cynomolgus CD38 protein; not shown: His-tag
Put plainly: ELISA, His-tagged CD38 captured on Ni-NTA plate, antibody about 1 µg/mL.

For experiment [2], the target named is T2, recombinant mouse CD38/His-tag (Sino Biological, catalog #50191-M08H) (mouse, UniProt P56528 45-304).
T2 construct: Bought protein; also called murine CD38 protein; not shown: His-tag
T2 sequence: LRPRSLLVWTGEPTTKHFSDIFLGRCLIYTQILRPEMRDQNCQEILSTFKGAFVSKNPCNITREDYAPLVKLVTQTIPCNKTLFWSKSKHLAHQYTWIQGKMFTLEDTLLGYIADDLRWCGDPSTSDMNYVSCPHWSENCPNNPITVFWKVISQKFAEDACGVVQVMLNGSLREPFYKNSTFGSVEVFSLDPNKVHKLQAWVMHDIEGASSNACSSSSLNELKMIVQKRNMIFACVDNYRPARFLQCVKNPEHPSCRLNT
Kind of experiment: ELISA, His-tagged CD38 captured on Ni-NTA plate, HRP anti-human Fc, OD 450 nm. A general note: In an ELISA, binding on a coated surface is turned into a signal by an enzyme label.

Experiment [3] deals with T3, cynomolgus CD38 on cynomolgus monkey T cells (cynomolgus monkey, UniProt Q5VAN0 1-300).
T3 construct: Native CD38 on peripheral blood lymphocytes from cynomolgus monkey blood, co-stained with anti-CD3 FITC; also called cynomolgus T cells
Kind of experiment: flow cytometry on cynomolgus peripheral blood lymphocytes co-stained with anti-CD3 FITC.

The target of experiment [4] is human CD38 on cells (Raji, Ramos, RPMI 8226, human T cells) (human, UniProt P28907 1-300). Kind of experiment: flow cytometry on non-activated or activated human T cells, 10, 1 or 0.1 µg/mL. In general terms: Flow cytometry measures light scatter and fluorescence of single cells or particles in a stream.

B1: parent antibody A2 (antibody, V domains shown)
VH: QVQLVESGGGLVKPGGSLRLSCAASGFTFSDDYMSWIRQAPGKGLEWVASVSNGRPTTYYADSVRGRFTISRDNAKNSLYLQMNSLRAEDTAVYYCAREDWGGEFTDWGRGTLVTVSS
VL: QAGLTQPPSASGTSGQRVTISCSGSSSNIGINFVYWYQHLPGTAPKLLIYKNNQRPSGVPDRFSGSKSGNSASLAISGLRSEDEADYYCAAWDDSLSGYVFGSGTKVTVL
notes: Only variable domains are tied to A2; also called A2-IgG1; anti-CD38-A2 parent antibody
B1: the binding result in experiment [1] was “binds”; in experiment [2], “no binding (tested: about 1 µg/mL)”; in experiment [3] it was “binds”.

B2: variant antibody 3E10 (antibody, V domains shown)
VH: QVQLVESGGGLVKPGGSLRLSCAASGFTFSDDYMSWIRQAPGKGLEWVASVSNGRPTTYYADSVRGRFTISRDNAKNSLYLQMNSLRAEDTAVYYCAREDWGGEFTDWGRGTLVTVSS
VL: QAGLTQPPSASGTSGQRVTISCSGSSSNIGFHFVYWYQHLPGTAPKLLIYKNNQRPSGVPDRFSGSKSGNSASLAISGLRSEDEADYYCAAWDDSLSGYVFGSGTKVTVL
notes: it was captured by anti-human Fc in SPR
On to B2, for which the binding result in experiment [4] is given as “binds”.

B3: variant antibody 3H10m1 (antibody, V domains shown)
VH: QVQLVESGGGLVKPGGSLRLSCAASGFTFSDDYMSWIRQAPGKGLEWVASVSNGRPTTYYADSVRGRFTISRDNAKNSLYLQMNSLRAEDTAVYYCAREGWSGEFTDWGQGTLVTVSS
VL: QAGLTQPPSASGTSGQRVTISCSGSSSNIGFHFVYWYQHLPGTAPKLLIYKNNQRPSGVPDRFSGSKSGNSASLAISGLRSEDEADYYCAAWDDSLSGYVFGSGTKVTVL
With B3, the binding result in experiment [3] is listed as “binds”.

B4: variant antibody 3G3 (antibody, V domains shown)
VH: QVQLVESGGGLVKPGGSLRLSCAASGFTFSDDYMSWIRQAPGKGLEWVASVSNGRPTTYYADSVRGRFTISRDNAKNSLYLQMNSLRAEDTAVYYCAREAWSGEFTDWGQGTLVTVSS
VL: QAGLTQPPSASGTSGQRVTISCSGSSSNIGINFVYWYQHLPGTAPKLLIYKNNQRPSGVPDRFSGSKSGNSASLAISGLRSEDEADYYCAAWDDSLSGYVFGSGTKVTVL
Turning to B4, in experiment [3], the binding result is “binds”.
